Measurements published in the RNAGym collection of RNA variant scans (doi:10.1073/pnas.2313332121).

B1: TPR t1 (parent)
chain: GACCAAUCUGCCCUCAGAGCUCGAGAACAUCUUCGGAUGCAGAGGAGGCAGGCUUCGGUGGCGCGAUAGCGCCAACGUCCUCAACCUCCAAUGCAUCCCACCACAUGAUGAUGCCUGAAGAGCCUUGGUUUUUUG

Variants of: B1
Experiment: polymerase ribozyme fitness, log enrichment relative to wild type (log ratio); higher = more active; in vitro selection for triplet polymerase activity
Procedure, shortened: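 A single round of triplicate in vitro selection, including frozen incubation at −7 °C, was applied to PCR-built, transcribed mutant libraries of each subunit of a heterodimeric triplet polymerase ribozyme. Illumina sequencing of input and output libraries retained genotypes with ≥10 input reads and ≥1 read per output. Fitness is the base-2 logarithm of genotype enrichment divided by wild-type enrichment, from inverse-variance-weighted replicate averages.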

| Variant | polymerase ribozyme fitness (log ratio) |
| --- | --- |
| C4A C72G | -1.81 |
| A18U G93C C94U | -3.75 |
| C11U G65U C82U C104A U112A | -6.27 |
| G45U G117A | -1.62 |
| G10C A41C C70U | -3.72 |
| G63U U78C C94A | -3.61 |
| G48A G69C C123U | -0.587 |
| A5C G77A | -0.654 |
| C56U U116G C123U | -1.77 |
| G47A G128A | -2.43 |
| G35U C86U C98A | -4.39 |
| U9C C12A | 0.347 |
| C15A G52C G63U G93U C97U | -5.64 |
| G61A G71U A95U U106G G120U | -5.9 |
| C12A U59G | -0.837 |
| G17C C22G G61U | -6.24 |
| G44C C80A G110U C124A | -6.53 |
| A18G C20U A95C | -1.56 |
| C85G G113U | -4.31 |
| A41G C99U | -3.39 |
| G52C G63C U87C | -0.694 |

| Variant | polymerase ribozyme fitness (log ratio) |
| --- | --- |
| C11U U30A | -4.5 |
| G36C G51A | -3.99 |
| A2U G10U G45A G48A C102U C114U G120C C123U | -4.53 |
| C22U U112A | -2.83 |
| U21C G71A G93A | -1.91 |
| A37C G42A A43U C104A | -5.34 |
| A6C U32A C64U A111G | -4.1 |
| G10U G113C G120U A121C | -2.24 |
| C8U U78C U109A | -5.42 |
| C4U G71U C97U C123A | 0.307 |
| C101A A105G | -3.13 |
| C82G A83C | -0.655 |
| G48A G69U C98G U125A U131C | -3.58 |
| U7G C64U C73G C89A C104U A119U | -6.4 |
| G17U A37U G60A | -2.43 |
| C20U C49U A90U G117U | -4.34 |
| G69C C70U C80U U112G G117U A118U | -7.19 |
| C11G A18U | -1.34 |
| C12A A18G C20U A37U A50C C64U U92A | -4.28 |
| G35U C64U | -5.09 |
| A18G G48U | -2.96 |

| Variant | polymerase ribozyme fitness (log ratio) |
| --- | --- |
| G63C C88G | -1.3 |
| C31U U78A A90G | -3.97 |
| U9C C94A A100C G127C G135U | -3 |
| G61C G127A | -2.71 |
| C53G U112G G113C | -5.93 |
| G60A C97G | -4.02 |
| C8A G17C G63U U96C C97A G113U | -6.74 |
| A16C A27G G61A U112C | -1.49 |
| C56A C80U | -1.23 |
| A27U A29G G122A | -3.63 |
| C28U A29U G45C G61A | -3.76 |
| G77C A83C | -0.826 |
| G58C G71U C82G C88G | -2.93 |
| C4U C49A G60C C80A C115A | -5.4 |
| C3A A6C U59A C62A U78G C97U G117C G135C | -6.34 |
| C11A G60A C101A C124G | 0.624 |
| A66U C124G | 0.671 |
| C89A C104A | -4.02 |
| G120U U129C | -0.774 |
| A6U G63A | -0.932 |
| A29U G60C | -2.06 |

| Variant | polymerase ribozyme fitness (log ratio) |
| --- | --- |
| C11G G42U C104A A121C | -3.09 |
| C73U U92A G93A | -4.03 |
| G36C G113C | -2.78 |
| G113U C123G | -1.81 |
| G52U U96A | -2.01 |
| C89G C123U | -0.521 |
| U30A A118U | -5.54 |
| U21C G45A U59A G61A | -1.1 |
| C20U G52C U78A C102U C124U | -2.94 |
| C11G U59A C85A U87A | -1.45 |
| A74G C79A C82A U112A | -2.42 |
| C40G G69C C72U C89A | -3.57 |
| C11U C79G G93U | -3.61 |
| C11U C28A | -3.2 |
| A5U C104A | -2 |
| C72U C82A A84C A111C | 0.731 |
| G51A G57U U81C C101U | -2.52 |
| C40G A75U G127A | -2.31 |
| U78C A100U | -0.819 |
| A29U G61A G127C | -3.2 |
| G48U C89G | -1.92 |
